Reference: patent publication US20230118517A1, “METHODS OF TREATING MULTIPLE MYELOMA” (Seagen Inc., priority 2020, published 2023)
“And” between values parts separate entries of the source, which are not always exact repeats. Identical values can stand only once. Like-named read-outs stand apart in the source and are kept apart here.

Columns and labels:
BCMA on MM1R cells = target: T1, BCMA on MM1R cells (Homo sapiens, UniProt Q02223); experiment: In vitro cell binding capacity assay (free SEA-BCMA in patient serum); format: cell-based; details: for patients in whom high levels of free SEA-BCMA were maintained throughout the dosing period: Q2wk
T1 construct: endogenous in cells; host or cells: MM1R cells
T1 sequence (Q02223 1-184): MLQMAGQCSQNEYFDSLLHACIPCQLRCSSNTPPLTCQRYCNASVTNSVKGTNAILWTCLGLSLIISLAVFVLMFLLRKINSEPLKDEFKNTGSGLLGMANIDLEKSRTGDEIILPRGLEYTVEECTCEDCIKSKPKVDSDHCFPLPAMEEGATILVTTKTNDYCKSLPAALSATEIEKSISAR
Text: An in vitro cell binding capacity assay was developed to complement serum concentration measurements of total SEA-BCMA, total soluble BCMA, and flow cytometric evaluation of free, unbound BCMA and total BCMA on plasma cells from the bone marrow. The assay measures the ability of free, unbound SEA-BCMA (e.g. not bound by sBCMA) from patient serum to bind and saturate BCMA in-vitro on a BCMA positive cell line. Titrations of known SEA-BCMA concentrations allow for an evaluation of the concentrations of free, unbound SEA-BCMA in patient serum. Together with a measurement of the percent-bound BCMA on the cell surface, this provides a direct indication of the ability of dosed SEA-BCMA to bind and saturate cell membrane-bound BCMA.
After incubation at room temperature for ½ hour, the cells were washed and stained with a saturating amount of SEA-BCMA conjugated to a fluorescent dye. After incubation at 4° C. in the dark for ½ hr, the cells were washed and fixed. Stained cells were analyzed on an Invitrogen Attune NxT flow cytometer. FlowJo V10 software was used to gate on viable cells and record the median fluorescent intensity (MFI). GraphPad Prism 8 was used for analysis.
The recorded MFI was normalized as follows. Normalization to 0% binding is the MFI from a control well incubated in healthy human serum with no SEA-BCMA present. Normalization to 100% binding is the MFI from a control well incubated in healthy human serum spiked with SEA-BCMA to a concentration 200 μg/mL. A titration of SEA-BCMA in healthy human serum may be used to generate a standard curve using the known amounts of SEA-BCMA.
The maintenance of free SEA-BCMA in the patient serum that are able to bind in vitro to the cell-surface BCMA of a BCMA-expressing cell line was investigated.

Molp-8 MM target cells = experiment: ADCC 51Cr release assay with NK effector cells; format: cell-based; details: Molp-8, with vs without 0.2 μM Nirogacestat, NK cells 10:1, 4 h
Experimental: Whether the enhanced FcγRIII signaling translated to increased lysis of MM target cells by SEA-BCMA was determined. Molp-8 MM target cells were incubated with and without 0.2 μM Nirogacestat (purchased from SelleckChem) for 24 hrs. Cells were then Na2 [^51Cr] O4 labeled and added to titrations of SEA-BCMA, or isotype antibody control. Effector cells, NK cells enriched from normal donor PBMC, were added at an effector-to-target cell ratio of 10:1 (50,000:5000). Donor NK cells were of the high affinity FcγRIII V/V genotype. The combination of antibodies, NK cells and target cells were incubated for 4 h at 37° C. with and without Nirogacestat. The radioactivity released into the culture supernatant of lysed target cells was then measured and the percent specific cell lysis calculated. […] This is the primary of mechanism of action of SEA-BCMA and translates to specific enhanced anti-MM lysis. It is expected that this will translate to improvements in anti-MM activity in the clinic when SEA-BCMA is combined with GSIs.

[1] = target: T2, membrane BCMA on malignant plasma cells (Homo sapiens, UniProt Q02223); experiment: Flow cytometric assessment of BCMA expression and engagement on MM cells in bone marrow; format: in vivo
T2 construct: from tissue; host or cells: multiple myeloma cells in patients' bone marrow aspirates
T2 sequence (Q02223 1-184): T1 sequence (Q02223 1-184)
Experimental: A Flow Cytometric Assay was designed to identify multiple myeloma cells in patients bone marrow aspirate, and measure levels of BCMA (unbound and total) and APRIL on the MM cell surface.
Bone marrow aspirates were collected from enrolled patients at Baseline and on-treatment (C2D22, confirmation of CR, per standard of care), and tested by flow cytometry with one day of collection in most cases.
MM cells detection was performed using extracellular CD138, CD38, CD45, CD56 and CD28 staining and intracellular kappa and lambda light chains staining. […] Detection of APRIL, most probably bound to BCMA on the MM cell surface, is also performed.
Each sample was split into 3 aliquots: one aliquot stained using only the MM gating antigens but no anti-BCMA or anti-APRIL antibodies (gating control), one aliquot stained with MM Gating antigens and the two labeled anti-BCMA antibodies, and one incubated for 2 hours at 37 C with spiked BCMA (100 ug/mL) before staining with MM gating antigens+APRIL+labeled non-competing anti-BCMA 16.16 antibody. After staining, washing and fixation in 2% paraformaldyde, cells were analyzed on a BD FACScanto cytometer, with up to 2×10^6 leukocytes acquired. Data analysis was performed with FACS Diva (Q2) and FlowJo (Seattle Genetics).

MOLP-8 luciferase cells = experiment: Disseminated MM mouse tumor xenograft (luminescence); format: in vivo, SCID mice; details: SEA-BCMA 3 mg/kg once IP combined with daratumumab 1 mg/kg weekly 5x, N=5
Experimental: Experiments were performed to test whether SEA-BCMA can combine effectively with daratumumab in a disseminated MM mouse tumor xenograft. MOLP-8 luciferase cells were injected IV into SCID animals and allowed to home to the bone marrow. Molp-8 cells express 2000 copies of BCMA and 323,000 copies of CD38 (daratumumab target). When sufficient luminescence was observed, animals were dosed once IP with SEA-BCMA, or SEA non targeted control at 3 mg/kg. Daratumumab was dosed weekly 5× at 1 mg/kg. Median luminescence plotted, N=5. The combination of SEA-BCMA and daratumumab yielded complete remissions in 4 of 5 animals.

[2] = among 20 total patients treated

Question: With “SEA-BCMA: non-fucosylated monoclonal anti-BCMA antibody having heavy chain SEQ ID NO: 13 and light chain SEQ ID NO: 15” as the substance, how does the “patients in whom high levels of free SEA-BCMA were maintained throughout the dosing period” value (BCMA on MM1R cells; 800 mg (or equivalent)) read?
Answer: 6/8 and 6 out of 8

Question: And the “patients in whom high levels of free SEA-BCMA were maintained throughout the dosing period” value (BCMA on MM1R cells; 1600 mg)?
Answer: 7/7 and all patients

Question: What about the “maintenance of >95% bound BCMA in vitro through the dosing interval” value (BCMA on MM1R cells; serum of patients dosed 100 mg-400 mg, two doses 14 days apart) of the same substance?
Answer: not able to maintain >95% bound BCMA in vitro

Question: What about the “ADCC (specific cell lysis)” value (Molp-8 MM target cells) of the same substance?
Answer: Increased ADCC

Question: What about the “saturation of membrane BCMA” value ([1]; 1600 mg) of the same substance?
Answer: complete saturation was observed in at least one patient

Question: And the “unbound membrane BCMA on malignant plasma cells” value ([1]; bone marrow of patients treated in dose escalation)?
Answer: reduced levels of unbound membrane BCMA

Question: What about the “saturation of membrane BCMA” value ([1]; evaluable patients dosed at 800 mg and 1600 mg) of the same substance?
Answer: Incomplete saturation of membrane BCMA

Question: What about the safety (1600 mg per dose once every 2 weeks) of the same substance?
Answer: found to be safe

Question: And the safety profile (20 patients, 100-1600 mg)?
Answer: well-tolerated with no severe adverse effects

Question: What about the adverse event (Patient A, 1600 mg every two weeks, second cycle) of the same substance?
Answer: Grade 2 maculopapular rash

Question: And the “dose-limiting toxicity (DLT) (Grade 3 infusion-related reactions)” value [2]?
Answer: 1 case

Question: What about the “total serious infusion-related reactions” value [2] of the same substance?
Answer: 2

Question: What about the safety (combination with dexamethasone, SEA-BCMA Day 1 and 15, dexamethasone Day 1, 8, 15, 22 of 28-day cycle) of the same substance?
Answer: found to be safe

Question: And the “delayed-onset infusion-related reactions (IRRs)” value (dose escalation cohort)?
Answer: no instances of delayed-onset infusion-related reactions

Question: What about the “maximum tolerated dose (MTD)” value (human, in vivo) of the same substance?
Answer: completed without exceeding MTD

Question: And the safety (intensive dosing: 1600 mg q1wk for 8 doses, then once every two weeks)?
Answer: intensive dosing was safe

Question: And the safety and tolerability (patient, 200 mg escalated to 1600 mg every two weeks, cycles 1-10)?
Answer: tolerated the therapy well without any adverse effects related to SEA-BCMA

Question: And the complete remissions (MOLP-8 luciferase cells)?
Answer: 4 of 5
